Reference: patent publication US20240002497A1 (Merck Sharp & Dohme, published 2024)

B1: F0103265B04 (VHH)
VHH: EVQLVESGGGLVQPGGSLRLSCAAPSFIFSNNYMEWYRQAPGKQRDWVARITGRGNTNYLDSVKGRFTISRDDAKNTVYLEIDSLKPEDTAVYYCSALWYGGRAWGKGTLVTVSS
notes: entry includes the FLAG-HIS6 tag; also called F0103265B04 (parental)-FLAG-HIS6
B2: F0103262B06 (VHH)
VHH: EVQLVESGGGLVQPGGSLRLSCAGSTRTFSTYAMGWFRQAPGREREFVAHINFSGSSTRYADSVKGRFTISRDNAKNMGYLQMNSLKPEDTAVYYCAARWVAGPPRYDYEYWGQGTLVTVSS
notes: entry includes the FLAG-HIS6 tag; also called F0103262B06 (parental)-FLAG-HIS6
B3: F0103262C02 (VHH)
VHH: EVQLVESGGGLVQAGGSLTLSCAASGLPFGLYILGWIRRAPGKERDFVAAISRSGRDTVYANSVKGRFTISRDNAKNMVYLRMDNLRPEDTAAYYCAVDSVPRGTPTITESEYAIWGQGTLVTVSS
notes: entry includes the FLAG-HIS6 tag; also called F0103262C02 (parental)-FLAG-HIS6; F103262CO2

Experiments:
[1] = target: T1, huNav1.7α + β1-β2-β3 (human, UniProt Q15858 1-1988; A5A6L6 19-218; O60939 30-215; Q2KI11 23-215); experiment: binding FACS, CHO FlpIn cells
T1 construct: Cell line (CHO FlpIn, HEK FlpIn, transient HEK293T) is named under assay; also called huNav1.7-beta1-beta2-beta3; human Nav1.7α with Navβ1, Navβ2 and Navβ3
Procedure: (§1) Binding of the ISVDs to cell-expressed Nav1.7α was detected via murine anti-Flag (Sigma, catalog #F1804). Briefly, cells were resuspended in FACS buffer (PBS, 10% FBS, NaN₃) and transferred to a 96-well V-bottom plate at 1×10^5 cells/well. Purified FLAG3-tagged ISVD was diluted in FACS buffer and added to the cells for 30 minutes at 4° C. […] Prior to the read-out, the samples were resuspended in 1 μg/mL propidium iodide (Sigma, catalog #P4170) to exclude dead cells. Between each step, the cells were centrifuged for 5 minutes at 200 grams and washed with 100 μL/well FACS buffer.
(§2) Based on the huNav1.7α model (as described above) the following huNav1.7α-rhNav1.7α polymorphisms can be allocated to the extracellular part of DI: N146S, F276V, R277Q, E281V and V331M. The first of the residues is in DI S1-S2 whereas the latter four residues belong to DI S5-S6. FACS binding studies (as described above) were performed to stable CHO FlpIn cell lines expressing different variants of huNav1.7+β1−β2−β3 each including one of the four possible extracellular huNav1.7α-rhNav1.7α polymorphisms in the DI S5-S6 region: F276V, R277Q, E281V and V331M (Table 23 and FIGS. 22A-22F). Individual polymorphisms were each sufficient to abolish the binding of F0103265B04, F0103362B08, F010301080, and F0103262B06 to huNav1.7α, recapitulating the absence of binding on rhNav1.7α. F0103262CO2, F0103275B05 and F0103387G05 are more subtly affected in terms of EC50 or Bmax by some of the polymorphisms. None of the individual DI S5-S6 polymorphisms by themselves appear to have an impact on the binding of the two rhNav1.7α cross-reactive ISVDs F0103387G04 and F0103464B09. In addition, no effect on binding of the two ISVDs was observed (data not shown) for the three extracellular DIV VSD huNav1.7α-rhNav1.7α polymorphisms Q1530P, H1531Y and E1534D (FIG. 22G).

[2] = target: T2, rhNav1.7α + β1-β2-β3 (rhesus monkey); experiment: binding FACS, CHO FlpIn cells
T2 construct: also called rhNav1.7-beta1-beta2-beta3; rhesus Nav1.7α
Procedure: as §1, §2

[3] = target: T3, huNav1.7α(F276V) + β1-β2-β3 (human, UniProt Q15858 1-1988; A5A6L6 19-218; O60939 30-215; Q2KI11 23-215); experiment: binding FACS, CHO FlpIn cells
T3 construct: polyprotein as encoded, P2A sites liberate the subunits; the entry already carries F276V; also called huNav1.7(F276V)-beta1-beta2-beta3
Procedure: as §1, §2

[4] = target: T4, huNav1.7α(R277Q) + β1-β2-β3 (human); experiment: binding FACS, CHO FlpIn cells
T4 construct: polyprotein as encoded; the entry already carries R277Q; also called huNav1.7(R277Q)-beta1-beta2-beta3
Procedure: as §1, §2

[5] = target: T5, huNav1.7α(E281V) + β1-β2-β3 (human); experiment: binding FACS, CHO FlpIn cells
T5 construct: polyprotein as encoded; the entry already carries E281V; also called huNav1.7(E281V)-beta1-beta2-beta3
Procedure: as §1, §2

[6] = target: T6, huNav1.7α(V331M) + β1-β2-β3 (human); experiment: binding FACS, CHO FlpIn cells
T6 construct: polyprotein as encoded; the entry already carries V331M; also called huNav1.7(V331M)-beta1-beta2-beta3
Procedure: as §1, §2

[7] = target: T7, huNav157chim4 + β1-β2-β3 (human, UniProt Q15858 44-1988; A5A6L6 19-218; O60939 30-215; Q2KI11 23-215); experiment: FACS, transiently transfected HEK293T cells
T7 construct: DII, DIII, DIV from Nav1.7α, DI from Nav1.5α; also called huNav157 chimera 4
Procedure: as §1
(§3) FACS binding studies (as described above) were performed on HEK293T cells transiently transfected with expression vectors encoding a huNav1.7α or rhNav1.7α fused at the C-terminus via a P2A viral peptide linker to a single polypeptide encoding sodium channel beta subunits Navβ1, Navβ2, and Navβ3 in tandem (β1-β2-β3; SEQ ID NO:21). Similarly, HEK293T cells transiently transfected with expression vectors encoding chimeric variants of huNav1.7α in which individual domains are replaced by their huNav1.5α counterparts (chimeras 1 to 4 in FIG. 16) or with chimeric variants of huNav1.5 in which individual domains are replaced by their huNav1.7α counterparts (chimeras 5 to 8 in FIG. 16) fused at the C-terminus via a P2A viral peptide linker to β1-β2-β3 as above. See Table 7 for description of the expression vectors encoding the chimeras, Table 21 and FIG. 16).

[8] = target: T8, huNav157chim5 + β1-β2-β3 (human); experiment: FACS, transiently transfected HEK293T cells
T8 construct: DI, DII, DIII from Nav1.5α, DIV from Nav1.7α; also called huNav157 chimera 5
Procedure: as §1, §3

[9] = target: T9, huNav157chim6 + β1-β2-β3 (human); experiment: FACS, transiently transfected HEK293T cells
T9 construct: DI, DII, DIV from Nav1.5α, DIII from Nav1.7α; also called huNav157 chimera 6
Procedure: as §1, §3

[10] = target: T10, huNav157chim7 + β1-β2-β3 (human); experiment: FACS, transiently transfected HEK293T cells
T10 construct: DI, DIII, DIV from Nav1.5α, DII from Nav1.7α; also called huNav157 chimera 7
Procedure: as §1, §3

[11] = target: T11, huNav157chim12 + β1-β2-β3 (human, UniProt Q15858 1-1988; A5A6L6 19-218; O60939 30-215; Q2KI11 23-215); experiment: FACS, transiently transfected HEK293T cells
T11 construct: DI S5-S6 from Nav1.5α, rest Nav1.7α; also called huNav157 chimera 12
Procedure: as §1, §3

[12] = target: T1, huNav1.7α + β1-β2-β3; experiment: competition FACS, HEK FlpIn cells, vs EC30 of CMYC3-F0103265B04
Procedure: Competition FACS assays were performed with CMYC3-tagged ISVD F0103265B04 or F0103275B05(N93R) affinity maturation variant on a HEK FlpIn huNav1.7α+β1−β2−β3 transgenic cell line. Briefly, cells were resuspended in FACS buffer (PBS, 2% FBS, 0.05% NaN₃) and 1×10⁵ cells/well were transferred to 96-well V-bottom plates. Cells were subsequently resuspended in a 100 μL mixture of purified ISVD (dilution series) and CMYC3-tagged ISVD F0103265B04 (at a concentration equivalent to EC30) followed by incubation for 1.5 hours at 4° C. […] Between each step, the cells were centrifuged for 5 minutes at 200 g and washed with 100 μL/well FACS buffer. Prior to the read-out, the samples were resuspended in 5 nM TOPRO3 (Molecular probes, catalog #T3605) to exclude dead cells. F0103262CO2, F0103262B06, F0103265A11, F0103265B04, F0103275B05, F0103362B08, and F0103387G04 all compete with F0103265B04 for binding to huNav1.7α, in contrast to an irrelevant control ISVD (IRR) (see Table 21 and FIG. 15A, FIG. 15B, FIG. 15C, and FIG. 15D).

Row | Binder | EC50 [1] [nM] | binding result [2] | binding result [3] | EC50 [4] [nM] | EC50 [5] [nM] | binding result [6] | binding result [7] | binding result [8] | binding result [9] | binding result [10] | binding result [11] | IC50 [12] [nM] | binding result [4] | binding result [5] | EC50 [6] [nM] | EC50 [3] [nM]
1 | B1 | 9.2 | no binding | no binding | 7.1 | 7.5 | no binding | no binding (tested: 1 µM) | no binding (tested: 1 µM) | no binding (tested: 1 µM) | no binding (tested: 1 µM) | no binding (tested: 1 µM) | 18 | – | – | – | –
2 | B2 | 47 | no binding | no binding | – | – | – | no binding (tested: 1 µM) | no binding (tested: 1 µM) | no binding (tested: 1 µM) | no binding (tested: 1 µM) | no binding (tested: 1 µM) | 49 | no binding | no binding | 63 | –
3 | B3 | 290 | no binding | – | 450 | 240 | – | no binding (tested: 1 µM) | no binding (tested: 1 µM) | no binding (tested: 1 µM) | no binding (tested: 1 µM) | no binding (tested: 1 µM) | 530 | – | – | 86 | 210
